The data set is described as follows: label from the status in PepcDB records.

“MKKRILSAVLVSGVTLGTAAVTVNADDFDSKIAATDSVINTLSGQQAAAQNQVTAIKGQVGALESQQSELEAQNAQLEAVSQQLGQEIQTLSNKIVARNESLKKQVRSAQKGNLTNYINTILNSKSVSDAVNRVVAIREVVSANEKMLAQQEADKAALEAKQIENQNAINTVAANKQAIENNKAALATQRAQLEAAQLELSAQLTTVQNEKASLIQAKAQAEEAARKAAEAQAAAEAKAQAEAKAQAESVAKAQAAAQVESATAPTETVQTQPRTEIKPSNLTATSSATTVATTTATATNEPKVTQPSVVTKAVEAPKAVVSSTPRAVSKPVVRSYDSSNTYPMGQCTWGAKSMASWVGNYWGNANQWGASARAAGYSVGTTPRVGAVAVWPYDGGGYGHVAVVTSVANNSSIQVMESNYAGNMSIGNYRGSFNPSASGSVYYIYPN”: the protein production entry is given as “failed”.
With “MKKRILSAVLVSGVTLSAAASVHAEDYDSQIAATNNAISNLASQQEAAQAQVATIQSQVSTLRTQKTELEAKNAELEKVSADLESEIQELSSKIVARQDSLAKQARSAQQNNTATSYINSILNSKSISEAITRITAISKVVTANNDLLTKQESDQKELAAKQEENQAAINTIAANKSELETTEAGLTTQQAELEAAQVTLAAELATAQNEKTSLVSAKSTAESVAASTAASVAQSQAIAESEATAQVVASSEAATSVASSEVAATSEAVAQPSETPVSETSTASEAAQEPASSETSEVQPESAAPAVSEAPASVAPVATSEAAPATSEAPASVAPVATSEAAPAVSEAPAPAAETHKVSAASTPNTYPVGQCTWGVKSLAPWAGNNWGNAKNWIASAQAAGHSVGTTPVAGAIAVWPNDGGGYGHVAYVTSASGANSIQVMESNYAGNMSISNYRGTFDPTSSAHGGSVFYIYPLEHHHHHH” the entry was “not failed”.
With “MKKRYKNPEKSGSCGNFIQAIKMTDKVQPLESLSKKPEEPKIVVNLRRIKRKIMVMSGKGGVGKSTVAANLAVGLALRGHRVGLLDCDIHGPTVPTIFGLESARPGVSEEGILPIEVLPNLSVMSIGFLLENKDSPIIWRGPAKMGAIKQFLEEVFWGALDFLIIDLPPGTGDEPLSVAQLIPNCDGSVLVTTPQDVALISVRKSITFSEKLNVPIIGLVDNMHGLICPHCGKPIEVFGSGGVEKASKDFNIPILARLPIEPGVAEMEDRGTVVQDQLKHGTEWQKNFDNVVDAVEKILEKELEHHHHHH” the entry was “not failed”.
For “MKKSLIAFILIFMLVLSGCGMKDNDKQGSNDNGSSKSPYHRIVSLMPSNTEILYELGLGKYIVGVSTVDDYPKDVKKGKKQFDALNLNKEELLKAKPDLILAHESQKATANKVLSSLEKQGIKVVYVKDAQSIDETYNTFKQIGKLTHHDKQAEQLVEETKDNIDKVIDSIPAHHKKSKVFIEVSSKPEIYTAGKHTFFNDMLEKLEAQNVYSDINGWNPVTKESIIKKNPDILISTEAKTRSDYMDIIKKRGGFNKINAVKNTRIEVVNGDEVSRPGPRIDEGLKELRDAIYRK” the value was “failed”; for “MKKTKVHLISGFLGTGKTTALKSLMAQKDPNEKWVIIVNEFGEIGIDGAVLSDNGIPVAEIAGGCLCCTAGPQMGVTVQKMLRDAKPDRLMIEASGLAHAASVIDELKTKPLDSLLEIGAVFTVVDPRQFINPDYAQQALYKDQIGICDVLVASKTDLCTPEQLAEFHDKAAKLFPPKAKVVEVQNAQLDIQWLDIPVIEKSRYRLKALPDNTMGFQSQGFTFPAGRDFDGEKLTNFFNDLPNMTEGLVRAKGVFQVLGTWVWLNWVDGQWGANQVSWRRDSRFELIAKSFDADLIEQKLKDALELEHHHHHH”, “failed”; for “MKKTLILGATPETNRYAYLAAERLKSHGHEFIPVGRKKGEVLGKTIINERPVIEGVDTVTLYINPQNQLSEYNYILSLKPKRVIFNPGTENEELEEILSENGIEPVIGCTLVMLSAGTF”, “not failed”.
On to “MKKTLPKTEAPSSVGNGSDSPIEFDAIIRQVPDMDAAYVEIPFDVKTVYGKGRVRVNATFDGYPYTGYIVRMGLPCHILGLRQDIRRAIGKQPGDSVYVTLLPL”, for which the protein production result is reported as “not failed”.
With “MKKTLSVLVISSLLFGANVQAAALNAAQEKEVRALVRDTLVSNPEILEEAIMALQTKKADEQQAQFRQALASEHDALYNDAASPRIGAKDAKLVLVSFTDYNCPYCKRFDPLLEKITEQYPDVAVIIKPLPFKGESSAKASQAVLSVWKEDPKAFLALHQRLMQKKTMLDNASIEDAMKSTNTSKIKLTDDSLKTLQNNLELSRKLGIQGTPATVIGDTILPGAVDYDQLEIIVKEQLAKVKK” the entry was “failed”.
As to “MKKTLVIVVHPDLTKSVINKAWAKAIEGAATIHHLYEQYPNGQIDLAHEQALLEAHDRIVFQFPLYWYAAPYLLKKWMDEVFTEGWAYGAGGDKMEGKEICAAVSCGSPKSAFAEGAQQCHTLRSYLNVFDGIAAFLRARFTGYHACYDSYNPRLPEMLPANCEAYLRFIKGE”, the protein production entry is “failed”.
With “MKKTMAKSLSVIIPACNEIDTISDVIQSVKGLNPLEIIVVANGCTDGTETVAEHLGCKVLRYTEKLGNDVGRAAGAKEAIGDVLLFIDGDFAIQTSKLQLFLNPILYNQADVVLNNLDALFLKRQKPNSITVWRQILNSILEREELKIDSLLAVPHALTKEVVQSIGYECFVNPILAHLRLVQGKWRISRHCAIDVITPNKFRPTEHAAYGTDLSPSEKRMIGDHIEAVAERIVGSDERGGYCDGNRKRDSVYHTLDFEDFYQGWGVTSNLYKGKQLSVIIPVQNEEKTIGNVIEEVRKIEPFEIIVVVNGSSDQTATIAKDKGATTIVYKEALGNDVGRSLGTYFAKGEIVLFIDGDFVIPASELYPFAKAIADGTDVALNDLNHYLDLRVPLHLVTAFKYALNLACDRKDLGVGSLVAVPNAFSRKCLKQIGYRSLLAPCVAQVKAILSGFEVACVSRVEVDKMNRIRPSEHLAKIGHPPAVLRIIGDHIEGLEQLIGLTGSRGGFHDGNRKRDIL” the entry was “failed”; with “MKKTPIYVEISIQAEMERLWRYTQDPTLHRQWDLRFTDITYLKRRPGEPQRFLYETRIGFGLKISGTGESAGNVFQDTGDRVSSLKFATNHPLSVIREGRGYWKYSESETGITFMTQYDYDTRYGRLGRLADMAFRPLLGWATAWSFDALKIWLEKGLHPRLLFQKTLVYWLVCLLFSFVWIYQGLVPKLIMAHPGEISMLSAFTGGRFHPETLLRLIGLAEVMVGVLWLYPVRKRKWFLLHIVLLVLLSASAGMADIASFAEPFNPVVLNAALIILSVIGYVSACGIPNAGNTIRKRR”, “failed”.
For “MKKVFDVWDVETAKRFLEIIKDEPIYYPALIALHTGMRAGEILSLKWCDVNFETRVISIVKSERKNRGLKTVNLKTKTSKRAVYMNDILYKELKNLYEITKPKPDDFVCPRLPTGNLTVNYLSRKFKKLVKKHNFPLIRFHDLRHTFATLMLSLGVNTKIVAEILGHSDIKLTADTYSHVLPTMQEEAMKEFVKLWKLEHHHHHH” the value was “not failed”.
Take “MKKVSIIIPFKGQTEAELMLPLSSIYNQIGVDLSQLDIHLVNDGGKTIDLSKFDVLADRLEIHYHEIPNGGPGVARQYGIDNSISEYIMFIDADDVLYYVGALWPFYNASNQGHQMIRASYWEQIAGNPYTYTVHGNGDRKAAYGKWYKRSYIEMLGLRFMPDLPIYEDTYFVGLACELATDTCFLEEKVYMWLANPNSITRTVENKFNYQAHIYARENRYWFEMIRKWKPECLEHHHHHH”: the protein production entry is on record as “failed”.
With “MKKVSIIIPFKGQTEAELMLPLSSIYNQIGVDLSQLDIHLVNDGGKTIDLSKFDVLADRLEIHYHEIPNGGPGVARQYGIDNSISEYIMFIDADDVLYYVGALWPFYNASNQGHQMIRASYWEQIAGNPYTYTVHGNGDRKAAYGKWYKRSYIEMLGLRFMPDLPIYEDTYFVGLACELATDTCFLEEKVYMWLANPNSITRTVENKFNYQAHIYARENRYWFEMIRKWKPECLVTDFENYLTNMYLKSQKYPPVDEKAWWEEQHKLITSVSDIFSGWTQELQKQVEDKSANPQNEWHGIETDGFKEWATQSLPW” the entry was “failed”.
